Data as given in US20160304586A1.

Target: hemagglutinin of influenza B virus (B/Brisbane/60/2008 BX-35) (Influenza B virus B/Brisbane/60/2008 BX-35)
Experiment: cell-based or functional assay

B1: CR11039 (antibody, V domains shown)
VH: EVQLVQSGAEVKKPGESVKISCKTSGYAFTGYGISWVRQAPGQGLEWMGWINTYKFNTNYAQNLQGRVTMTIDTSTSAAYMELRSLRYEDTAVYFCARDWAGPFGNAFDVWGQGTMVTVSS
VL: IQMTQSPSSLSASIGDRVAITCQASQDISDYLNWYQQQPGKAPKLLLYGASNLETGVPSRFSGSGSGTDFTFTISSLQPEDIATYYCQQYGNLPPTFGGGTKLEIK
- neutralizing capacity in MDCK cell culture, Experiment 5, CPE, undiluted virus: > 0.4 µg/mL
- neutralizing capacity in MDCK cell culture, Experiment 6, CPE, undiluted virus: > 0.8 µg/mL
